B1: TPR t1 (parent)
chain: GACCAAUCUGCCCUCAGAGCUCGAGAACAUCUUCGGAUGCAGAGGAGGCAGGCUUCGGUGGCGCGAUAGCGCCAACGUCCUCAACCUCCAAUGCAUCCCACCACAUGAUGAUGCCUGAAGAGCCUUGGUUUUUUG

Variants of: B1
Test: polymerase ribozyme fitness, log enrichment relative to wild type (log ratio); higher = more active; in vitro selection for triplet polymerase activity
In short: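 Fitness is a logarithmic measure of how a genotype enriched relative to the wild type, with replicate averages weighted by inverse variance. The logarithm uses base 2, and enrichment came from Illumina sequencing of input and output libraries. Those libraries were PCR-built, transcribed mutants of each subunit of a heterodimeric triplet polymerase ribozyme, passed through one triplicate in vitro selection round that included frozen incubation at −7 °C, gel excision of extended constructs and streptavidin-bead capture. Genotypes were kept only if they had ≥10 input reads and ≥1 read per output.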

First: U7G C56A
Second: U106A G117U G127U
The “polymerase ribozyme fitness (log ratio)” value of the first is higher: 0.0403 for the first, -0.344 for the second.

Compared with C8G U21A U54C C72A, A74G A83U U106C is lower in “polymerase ribozyme fitness (log ratio)” value: 0.0731 for the first, -0.743 for the second.

First: C12A C28U G63C
Second: G36A U92A
The “polymerase ribozyme fitness (log ratio)” value of the first is higher: -2.37 for the first, -3.67 for the second.

Going from C15A U54A C56G C72A to A5G U54G G69U, the “polymerase ribozyme fitness (log ratio)” value rises from -2.89 to -0.999.

Going from C15U C56G G61U A66G C73U C94G C97G C98A U112G A119C G135C to A18U G117C, the “polymerase ribozyme fitness (log ratio)” value rises from -5.66 to -4.12.

First: C11U A27U G71U C101G C104U A111C
Second: U54G A95C U133A
The “polymerase ribozyme fitness (log ratio)” value of the first is lower: -6.17 for the first, -1.48 for the second.

First: C80A U96C
Second: C28U U112A G122A U129A
The “polymerase ribozyme fitness (log ratio)” value of the first is higher: -3.2 for the first, -6.54 for the second.

Compared with A5U G47U, G36U U112G G113U is lower in “polymerase ribozyme fitness (log ratio)” value: -1.29 for the first, -3.55 for the second.

Compared with U33A U87A U133G, G42A C124A is higher in “polymerase ribozyme fitness (log ratio)” value: -4.32 for the first, -0.186 for the second.

First: C40A G63U C79A U130G
Second: U78C A95G
The “polymerase ribozyme fitness (log ratio)” value of the first is lower: -4.83 for the first, -1.08 for the second.

Compared with C13A A16U G60U C88U A121G, C4U U59A C62A A100C U106A C124G is lower in “polymerase ribozyme fitness (log ratio)” value: 1.33 for the first, -0.734 for the second.

Going from U59C C102A C115G to U30C C62U U78C, the “polymerase ribozyme fitness (log ratio)” value rises from -4.44 to -3.36.

Going from C11U U106A G110C C123U to C11U C53U C72U C82G, the “polymerase ribozyme fitness (log ratio)” value rises from -2.46 to -1.43.

Compared with G57U C79A G93C U112G, U38C G71A is higher in “polymerase ribozyme fitness (log ratio)” value: -2.9 for the first, -1.37 for the second.

Going from C73U G110U to C12G C82U C97A, the “polymerase ribozyme fitness (log ratio)” value falls from -1.17 to -3.58.

Going from C28U A83C to U21C A41U G120A, the “polymerase ribozyme fitness (log ratio)” value rises from -2.54 to -0.65.

First: G71A C73U
Second: A5U C20A C40A G113C C115U
The “polymerase ribozyme fitness (log ratio)” value of the first is higher: -2.15 for the first, -4.07 for the second.

First: A111C U131A
Second: G71A A83G U133G
The “polymerase ribozyme fitness (log ratio)” value of the first is higher: -1.12 for the first, -2.31 for the second.

First: G52U G63U
Second: C15U A18U G44U G69U G117C A121C
The “polymerase ribozyme fitness (log ratio)” value of the first is higher: -0.651 for the first, -4.92 for the second.

First: C97U
Second: C8A G39A
The “polymerase ribozyme fitness (log ratio)” value of the first is lower: -0.53 for the first, -0.0887 for the second.

Compared with C20A U131A, A74U G110A is higher in “polymerase ribozyme fitness (log ratio)” value: -3.53 for the first, -1.3 for the second.

Compared with C11A G77U U87G U106G G113C U125G, C53A C56U is higher in “polymerase ribozyme fitness (log ratio)” value: -4.71 for the first, -0.113 for the second.

Compared with A6G U7G A37G G48U, U67C C85U is lower in “polymerase ribozyme fitness (log ratio)” value: 0.0457 for the first, -4.67 for the second.

First: A26U A121U
Second: G71A C99U
The “polymerase ribozyme fitness (log ratio)” value of the first is higher: -0.422 for the first, -3.17 for the second.

Going from C34U G63A to C12U U54A A91C C115U, the “polymerase ribozyme fitness (log ratio)” value rises from -3.64 to -0.811.

Going from G39A G69C C124U to G45C C56A C98U, the “polymerase ribozyme fitness (log ratio)” value falls from -0.485 to -3.15.

Compared with C4U A74U U92G, C73U C86U U109C G117A G135U is lower in “polymerase ribozyme fitness (log ratio)” value: -3.59 for the first, -6.47 for the second.

Compared with C89U C104A, A26U C40A is lower in “polymerase ribozyme fitness (log ratio)” value: -1.84 for the first, -4.26 for the second.

Compared with A103C C123A C124A, C3A G10U U38A C49U C82U G128A U131G is higher in “polymerase ribozyme fitness (log ratio)” value: -3.52 for the first, -1.74 for the second.

Going from C123U C124A to C62U C114U, the “polymerase ribozyme fitness (log ratio)” value falls from 2.14 to -1.82.

Compared with C49G G61U C88A, C70G G117C is lower in “polymerase ribozyme fitness (log ratio)” value: -1.08 for the first, -5.07 for the second.

Going from C4A C124U to C70U C97G, the “polymerase ribozyme fitness (log ratio)” value falls from -1.17 to -5.32.

Going from U7G U32A G39U G127C U130C to A16C G120A, the “polymerase ribozyme fitness (log ratio)” value rises from -5.02 to -2.28.

G42U C53G and C11U C53U A84G are within 0.2 log units of each other in “polymerase ribozyme fitness (log ratio)” value: -1.45 for the first, -1.32 for the second.

Compared with C8U A50U C104U C123U, U33C A37C G42U G69U A111C C115A G127C U133G is lower in “polymerase ribozyme fitness (log ratio)” value: 1.14 for the first, -5.26 for the second.

Going from C79U A111U U112A C124A to G57C C85G C114U A119C, the “polymerase ribozyme fitness (log ratio)” value falls from 1.11 to -6.42.

First: C4G G44U G61U A66U C72G C82A C85A A111C
Second: A50C U129A
The “polymerase ribozyme fitness (log ratio)” value of the first is lower: -6.11 for the first, -1.83 for the second.

First: G10C A26G G71A
Second: U81G A95G
The “polymerase ribozyme fitness (log ratio)” value of the first is higher: -2.61 for the first, -4.01 for the second.

First: G63A U81C A90U
Second: U96A U112C G127C
The “polymerase ribozyme fitness (log ratio)” value of the first is lower: -4.66 for the first, -0.056 for the second.

First: U78C U87G U126A
Second: A46G C49A
The “polymerase ribozyme fitness (log ratio)” value of the first is lower: -2.18 for the first, 0.0417 for the second.

First: C73U C124G
Second: A5U G57A G63U U78C A95C C115A
The “polymerase ribozyme fitness (log ratio)” value of the first is higher: 0.939 for the first, -3.19 for the second.

Compared with A2G C82A A111U, C12A G39C G47A A66U is higher in “polymerase ribozyme fitness (log ratio)” value: -4.1 for the first, -3.14 for the second.
